# Earlier results in PMC3036779.
# Target: GABARAP (Homo sapiens) (UniProt O95166)
# Sequence of UniProt O95166 (O95166 1-116): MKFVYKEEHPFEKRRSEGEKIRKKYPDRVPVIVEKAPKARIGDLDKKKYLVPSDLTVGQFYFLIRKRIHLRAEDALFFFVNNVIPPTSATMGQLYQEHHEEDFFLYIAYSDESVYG
substance,measurement,value
Nix (from UniProt O60238),Kd,100 µM
